Reference: patent publication US20240252631A1, “METHODS OF USING ACTIVIN RECEPTOR TYPE II SIGNALING INHIBITORS” (Keros Therapeutics, Inc., priority 2021, published 2024)
Numbering of substitutions follows the chain as printed. “Also recorded” adds a separate entry of the source.

Columns and labels:
C57BI/6 mice [1] = assay: ActRIIA/B-mFc in combination with ruxolitinib (ruxolitinib-induced anemia); type: in vivo, mouse
Experimental: To examine whether treatment with ActRIIA/B-mFc can overcome ruxolitinib-induced anemia, a pharmacological assessment was conducted in mice. Ten- to twelve-week-old, female, C57BI/6 mice were dosed orally with either vehicle (n=10) or ruxolitinib at 90 mg/kg (n=20) or 120 mg/kg (n=20) twice daily. After 37 days of ruxolitinib therapy, blood was sampled via cheek bleed for hematological assessment. On Day 41, mice from each ruxolitinib dose were divided into two groups that received either TBS (vehicle) (n=10) or ActRIIA/B-mFc (7.5 mg/kg, n=10 per group), IP twice weekly for 14 days concomitant to continued ruxolitinib dosing. Hematological parameters were assessed in whole blood with the use of a Heska Element HT5 veterinary hematology analyzer.

ActRIIB = ActRIIB (Homo sapiens, UniProt Q13705); settings: Townson et al., J. Biol. Chem. 287:27313, 2012; cited from earlier work
ActRIIB, sequence (Q13705 19-512, species assumed): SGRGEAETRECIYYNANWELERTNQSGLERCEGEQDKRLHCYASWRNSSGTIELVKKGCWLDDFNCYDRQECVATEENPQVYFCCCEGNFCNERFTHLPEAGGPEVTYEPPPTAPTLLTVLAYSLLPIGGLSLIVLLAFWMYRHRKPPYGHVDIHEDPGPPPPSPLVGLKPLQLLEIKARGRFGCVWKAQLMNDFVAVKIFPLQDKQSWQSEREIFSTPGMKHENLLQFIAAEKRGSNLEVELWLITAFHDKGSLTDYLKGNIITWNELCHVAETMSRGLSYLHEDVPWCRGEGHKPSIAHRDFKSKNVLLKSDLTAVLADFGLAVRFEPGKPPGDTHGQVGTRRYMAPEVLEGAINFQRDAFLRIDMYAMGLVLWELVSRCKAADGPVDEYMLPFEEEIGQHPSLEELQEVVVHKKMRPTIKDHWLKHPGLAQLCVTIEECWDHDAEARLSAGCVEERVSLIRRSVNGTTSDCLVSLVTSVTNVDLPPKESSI

[2] = Activity in vivo of ActRIIA variant substituted at X17; settings: substitution of alanine (A) for lysine (K) at X17
C57BI/6 mice [3] = assay: Effect of ActRIIA/B-mFc on platelets and bone marrow megakaryocyte progenitors 12 hours post-dose; type: in vivo, mouse; settings: single dose 10 mg/kg IP
Experimental: Eleven-week-old C57BI/6 mice were dosed with either TBS (Vehicle) or ActRIIA/B-mFc (10 mg/kg) via intraperitoneal (IP) administration. Twelve hours post-dose whole blood was sampled, and platelet counts were determined using a veterinary hematology analyzer (Heska Element HT5). Mice were then euthanized, and bone marrow extracted from the femurs. Bone marrow cells were stained with antibodies against Lineage (Perc-Cy5), sca1 (BV525), cKit (Alexa750), CD41 (APC) and CD150 (Pcy7) and analyzed on flow cytometer (Cytoflex, Beckman coulter). Megakaryocyte progenitors were gated on Lin−; sca1−; ckit+; CD150+; CD41+ cells.

C57BI/6 mice [4] = assay: Effect of ActRIIA/B-mFc on megakaryocyte maturation (CD41+ cells and ploidy by flow cytometry); type: in vivo, mouse; settings: 10 mg/kg, bone marrow
Experimental: Eleven-week-old C57BI/6 mice were dosed with either TBS (Vehicle) or ActRIIA/B-mFc (10 mg/kg) via IP administration. Twelve and twenty-four hour later mice were euthanized and bone marrow extracted from the femurs. Bone marrow cells were fixed in ethanol following by a staining with Propidium lodide (PI) and anti CD41 (FITC, Efferet) antibody in parallel with RNAse treatment. Samples were analyzed by flow cytometer (Cytoflex, Beckman coulter). Ploidy of CD41+ nucleated cells (PI+ cells) was analyzed. Graphs represent % cells at each ploidy stage. For 12HR N=3 and for 24HR N=2. For CD41+ cells at 12HR time point a t-test was performed for statistical analysis. Data are presented as mean±SEM.

[5] = test system: mouse model of immune thrombocytopenia; assay: Platelet recovery following anti-GP1bα platelet depletion; type: in vivo
Experimental: Twelve-week-old mice were treated with either anti-GP1bα (0.08 mg/kg, Efferet) or IgG control. At day 4 after treatment, the anti-GP1bα treated group was further divided to receive either vehicle or ActRIIA/B-mFc (7.5 mg/kg) treatment. Platelets were measured at indicated time points post anti-GP1bα dosing. At day 10 post-treatment, mice were euthanized and bone marrow cells were harvested. Bone marrow cells were fixed in ice-cold 100% ethanol and stained with Propidium lodide (PI) (200 μg/mL, Sigma-Aldrich) and anti-CD41 (FITC conjugated, Emfret Analytics) antibody in parallel with RNase treatment (2 mg/ml, Invitrogen). Samples were analyzed by flow cytometer (Cytoflex, Beckman coulter) and % CD41+ nucleated cells (PI+ cells) was measured.

C57BI/6 mice [6] = assay: Effect of a single dose of ActRIIA/B-mFc on platelet numbers at day 37, 51 and 85; type: in vivo, mouse; settings: single dose 10 mg/kg subcutaneous
Experimental: Eleven-week-old C57BI/6 mice were given a single dose of either TBS (vehicle) or ActRIIA/B-mFc (10 mg/kg) via subcutaneous administration. Separate cohorts of mice from both dosing groups were sampled for whole blood at study day 37, 51 and 85, and platelet counts were determined using a veterinary hematology analyzer (Heska Element HT5).

[7] = test system: Bone marrow cells from 11-week-old C57BI/6 mice; assay: Ex-vivo treatment of bone marrow cells, ploidy of megakaryocyte precursors by flow cytometry; type: cell-based, mouse; settings: six days
Experimental: Bone marrow cells from 11-week-old C57BI/6 mice were isolated and treated with Activin A ([…]), ActRIIA/B-mFc ([…]), or a combination of both for six days. Cells were harvested after six days and analyzed using flow cytometry (N=2).

C57BI/6 male mice = assay: Effect of an anti-activin A antibody on platelet numbers 24 hours post-dose; type: in vivo, mouse; settings: intraperitoneal, anti-activin A 5 mg/kg, ActRIIA/B-mFc 10 mg/kg, vs TBS
Experimental: Ten-week-old C57BI/6 male mice were dosed with either TBS (vehicle), anti-activin A antibody (described in WO2008031061A2, 5 mg/kg), or ActRIIA/B-mFc (10 mg/kg) via intraperitoneal administration. Twenty-four hours post-dose whole blood was sampled, and platelet counts were determined using a veterinary hematology analyzer (Hematrue).

[8] = test system: TPO^high model of myelofibrosis; assay: TPO^high model of myelofibrosis: platelets, red blood cell parameters, spleen weight, immune cells; type: in vivo, mouse
Experimental: The TPO^high model of myelofibrosis induces a myelofibrotic-like pathology through elevated exposure to thrombopoietin, the native endocrine inducer of megakaryocyte progenitor proliferation and development. Seven-week-old C57BI/6 albino mice (B6(Cg)-Tyr, Jackson Laboratory) were teil-vein injected with 0.75 mg/kg thrombopoietin (TPO) expressing plasmid cloned into pLEV113 plasmid (Lake Pharma). The injection was done in hydrodynamic approach in which 100 ml/kg volume is injected in a short period of time (6-10 seconds). On day 3 after TPO injection mice were divided into 2 groups receiving either vehicle (TBS) or ActRIIA/B-mFc (7.5 mg/kg), twice weekly. Mice were sacrificed on day 14 after TPO injection. Hematological parameters were measured using the Heska Element HT5 veterinary hematology analyzer.

[9] = ruxolitinib alone, 90 or 120 mg/kg orally twice daily, after 37 days
[10] = 7.5 mg/kg twice weekly from day 3, day 14 after TPO injection
[11] = 7.5 mg/kg IP twice weekly for 14 days, continued ruxolitinib

Molecule: N#CC[C@H](C1CCCC1)n1cc(-c2ncnc3[nH]ccc23)cn1 [ruxolitinib, reference compound]
- RBC volume (C57BI/6 mice [1]; [9]): reduced
- hematocrit (C57BI/6 mice [1]; [9]): reduced
- hemoglobin (C57BI/6 mice [1]; [9]): reduced

Molecule: BMP9: bone morphogenetic protein, ligand in the TGF-β superfamily
- binding affinity for ActRIIB relative to ActRIIA (ActRIIB): about 300 fold

B1: SEQ ID NO: 85: ActRIIA variant with substitution of alanine (A) for lysine (K) at X17 (protein)
chain: GAILGRSETQECLFYNANWELERTNQTGVERCEGEKDKRLHCYATWRNISGSIEIVAKGCWLDDFNCYDRTDCVETEENPQVYFCCCEGNMCNEKFSYFPEMEVTQPTS
- activity in vivo [2]: reduced activity

B2: ActRIIA/B-mFc: SEQ ID NO: 69 fused to a mouse Fc domain by way of a linker (protein)
chain: B1 chain with A57K
modifications: left off: a dimerising Fc or GST
- bone marrow megakaryocyte progenitors (C57BI/6 mice [3]; Lin-, sca1-, ckit+, CD150+, CD41+ cells): increased
- circulating platelet numbers (C57BI/6 mice [3]; vs TBS vehicle): increased
- number of CD41+ megakaryocyte progenitors (C57BI/6 mice [4]; 12 hours after treatment): increase
- number of polyploid megakaryocytes (C57BI/6 mice [4]; by 24 hours): increase
- recovery of platelet numbers following platelet depletion ([5]; 7.5 mg/kg at day 4 after anti-GP1bα (0.08 mg/kg), compared to vehicle treated mice): accelerated recovery
- increase in the number of CD41+ megakaryocyte progenitors in the bone marrow compared to the vehicle-treated group ([5]; 7.5 mg/kg, day 10 after platelet depletion): 25%
- 4N ploidy level ([5]; 7.5 mg/kg, day 10 after platelet depletion, vs vehicle): higher
- duration of increased circulating platelets after a single dose (C57BI/6 mice [6]): at least 85 days
- circulating platelets (C57BI/6 mice [6]; day 37, 51 and 85): increased
- activin-mediated changes in megakaryocyte precursors (ploidy) ([7]; ActRIIA/B-mFc (10 mg/kg) with Activin A (5 mg/kg)): reversed
- platelets in wild-type mice (C57BI/6 male mice): increased
- RBC metrics (red blood cells, hemoglobin, hematocrit, mean corpuscular hemoglobin concentration) [8, 10]: significant improvement
- TPO-mediated increase in lymphocytes [8, 10]: reduced
- TPO-mediated increase in white blood cells [8, 10]: reduced
- development of anemia [8, 10]: reduce
- expansion of platelets [8, 10]: significant attenuation; also recorded: attenuated
- splenomegaly [8, 10]: significant reduction
- splenic extra medullary hematopoiesis ([8]; inferred from splenomegaly, 7.5 mg/kg twice weekly, day 14): reduced
- ruxolitinib-associated reduction in RBC volume (C57BI/6 mice [1]; [11]): abrogated
- ruxolitinib-associated reduction in hematocrit (C57BI/6 mice [1]; [11]): abrogated
- ruxolitinib-associated reduction in hemoglobin (C57BI/6 mice [1]; [11]): abrogated
- body weight in mice treated with ruxolitinib (C57BI/6 mice [1]; ActRIIA/B-mFc 7.5 mg/kg IP twice weekly for 14 days with ruxolitinib 90 or 120 mg/kg twice daily): increased

B3: activin A: ActRII ligand of the TGF-β superfamily used to treat bone marrow cells ex vivo (protein, UniProt P08476 311-426, looked up)
Inhibin beta A chain: GLECDGKVNICCKKQFFVSFKDIGWNDWIIAPSGYHANYCEGECPSHIAGTSGSSLSFHSTVINHYRMRGHSPFANLKSCCVPTKLRPMSMLYYDDGQNIIKKDIQNMIVEECGCS
- 2N ploidy levels ([7]; Activin A (5 mg/kg)): increased
- extent of polyploidy (higher ploidy levels) ([7]; Activin A (5 mg/kg)): reduced
